# Laboratory results reported in paper PMC6955313 (Proceedings of the National Academy of Sciences of the …, 2019).
# Target: the molecule itself
# Assay: time-resolved SAXS/diffraction
protein,measurement,value
"RsaA_(Full-Length), the 98-kDa surface-layer protein (SLP) from Caulobacter crescentus (natural protein) MAYTTAQLVTAYTNANLGKAPDAATTLTLDAYATQTQTGGLSDAAALTNTLKLVNSTTAVAIQTYQFFTGVAPSAAGLDFLVDSTTNTNDLNDAYYSKFAQENRFINFSINLATGAGAGATAFAAAYTGVSYAQTVATAYDKIIGNAVATAAGVDVAAAVAFLSRQANIDYLTAFVRANTPFTAAADIDLAVKAALIGTILNAATVSGIGGYATATAAMINDLSDGALSTDNAAGVNLFTAYPSSGVSGSTLSLTTGTDTLTGTANNDTFVAGEVAGAATLTVGDTLSGGAGTDVLNWVQAAAVTALPTGVTISGIETMNVTSGAAITLNTSSGVTGLTALNTNTSGAAQTVTAGAGQNLTATTAAQAANNVAVDGGANVTVASTGVTSGTTTVGANSAASGTVSVSVANSSTTTTGAIAVTGGTAVTVAQTAGNAVNTTLTQADVTVTGNSSTTAVTVTQTAAATAGATVAGRVNGAVTITDSAAASATTAGKIATVTLGSFGAATIDSSALTTVNLSGTGTSLGIGRGALTATPTANTLTLNVNGLTTTGAITDSEAAADDGFTTINIAGSTASSTIASLVAADATTLNISGDARVTITSHTAAALTGITVTNSVGATLGAELATGLVFTGGAGADSILLGATTKAIVMGAGDDTVTVSSATLGAGGSVNGGDGTDVLVANVNGSSFSADPAFGGFETLRVAGAAAQGSHNANGFTALQLGATAGATTFTNVAVNVGLTVLAAPTGTTTVTLANATGTSDVFNLTLSSSAALAAGTVALAGVETVNIAATDTNTTAHVDTLTLQATSAKSIVVTGNAGLNLTNTGNTAVTSFDASAVTGTGSAVTFVSANTTVGEVVTIRGGAGADSLTGSATANDTIIGGAGADTLVYTGGTDTFTGGTGADIFDINAIGTSTAFVTITDAAVGDKLDLVGISTNGAIADGAFGAAVTLGAAATLAQYLDAAAAGDGSGTSVAKWFQFGGDTYVVVDSSAGATFVSGADAVIKLTGLVTLTTSAFATEVLTLA",binding result,binds
